Measured values from PMC4742562, “Structure and Interactions of a Dimeric Variant of sHIP, a Novel Virulence Determinant of Streptococcus pyogenes” (Frontiers in Microbiology, 2016).

Biological target: protein sHIP (streptococcal Histidine-rich glycoprotein Interacting Protein), sHIPwt (S. pyogenes)
Test: AUC; sedimentation velocity, 20°C, 50000 rpm, 20 mM MES pH 5.5; c(S) distribution compared with theoretical sedimentation coefficients (HYDROPRO)

protein sHIP (streptococcal Histidine-rich glycoprotein Interacting Protein), sHIPwt (natural protein)
stoichiometry N: 4
